{"source": "paper PMC10570036", "about": "“Yeast transcription factor Msn2 binds to G4 DNA”", "binders": {"B1": {"name": "dsCTT1 (dsDNA)", "DNA 1": "CTCTTTTTCAAGGGGATCACCGGTAAGGGGCCAATCTGTG", "DNA 2": "CACAGATTGGCCCCTTACCGGTGATCCCCTTGAAAAAGAG"}, "B2": {"name": "dsCTT1STREMut (dsDNA)", "DNA 1": "CTCTTTTTCATGTGTATCACCGGTATGTGTCCAATCTGTG", "DNA 2": "CACAGATTGGACACATACCGGTGATACACATGAAAAAGAG"}}, "key": {"[1]": {"molecular_target": "T1, GST-Msn2(596-704) zinc-finger domain (Saccharomyces cerevisiae, UniProt P33748 596-704)", "T1 sequence": "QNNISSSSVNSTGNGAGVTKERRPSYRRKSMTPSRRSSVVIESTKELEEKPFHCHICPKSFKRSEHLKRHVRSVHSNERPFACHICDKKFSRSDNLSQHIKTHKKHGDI", "assay": "EMSA; folded in 100 mM K+; 50 uM Zn2+; EMSA: oligos (0.1 uM) folded in 10 mM Tris-HCl pH 7.5, 100 mM KCl or LiCl; binding in 10 mM Tris-HCl pH 8.0, 1 mM DTT, 0.01% NP-40, 5% glycerol, 50 uM ZnSO4, room temperature 30 min; pull-down: 400 pmol biotin oligo folded in 100 mM KCl or LiCl, streptavidin beads, yeast whole cell lysate", "conditions": "protein: recombinant, tags: N-terminal GST (pGEX4T1), label: 5' Cy5"}, "[2]": {"molecular_target": "T1, GST-Msn2(596-704) zinc-finger domain", "assay": "EMSA; folded in 100 mM K+; EMSA: oligos (0.1 uM) folded in 10 mM Tris-HCl pH 7.5, 100 mM KCl or LiCl; binding in 10 mM Tris-HCl pH 8.0, 1 mM DTT, 0.01% NP-40, 5% glycerol, 50 uM ZnSO4, room temperature 30 min; pull-down: 400 pmol biotin oligo folded in 100 mM KCl or LiCl, streptavidin beads, yeast whole cell lysate", "conditions": "protein: recombinant, tags: N-terminal GST (pGEX4T1), label: 5' Cy5"}, "[3]": {"molecular_target": "T1, GST-Msn2(596-704) zinc-finger domain", "assay": "EMSA; folded in K+ or Li+; no significant interaction; EMSA: oligos (0.1 uM) folded in 10 mM Tris-HCl pH 7.5, 100 mM KCl or LiCl; binding in 10 mM Tris-HCl pH 8.0, 1 mM DTT, 0.01% NP-40, 5% glycerol, 50 uM ZnSO4, room temperature 30 min; pull-down: 400 pmol biotin oligo folded in 100 mM KCl or LiCl, streptavidin beads, yeast whole cell lysate", "conditions": "protein: recombinant; tags: N-terminal GST (pGEX4T1); label: 5' Cy5; G4"}, "[4]": {"molecular_target": "T1, GST-Msn2(596-704) zinc-finger domain", "assay": "EMSA; 100 mM K+; EMSA: oligos (0.1 uM) folded in 10 mM Tris-HCl pH 7.5, 100 mM KCl or LiCl; binding in 10 mM Tris-HCl pH 8.0, 1 mM DTT, 0.01% NP-40, 5% glycerol, 50 uM ZnSO4, room temperature 30 min; pull-down: 400 pmol biotin oligo folded in 100 mM KCl or LiCl, streptavidin beads, yeast whole cell lysate", "conditions": "protein: recombinant; tags: N-terminal GST (pGEX4T1); label: 5' Cy5 on sense strand; blunt"}, "[5]": {"molecular_target": "T1, GST-Msn2(596-704) zinc-finger domain", "assay": "EMSA; EMSA: oligos (0.1 uM) folded in 10 mM Tris-HCl pH 7.5, 100 mM KCl or LiCl; binding in 10 mM Tris-HCl pH 8.0, 1 mM DTT, 0.01% NP-40, 5% glycerol, 50 uM ZnSO4, room temperature 30 min; pull-down: 400 pmol biotin oligo folded in 100 mM KCl or LiCl, streptavidin beads, yeast whole cell lysate", "conditions": "protein: recombinant; tags: N-terminal GST (pGEX4T1); label: 5' Cy5 on sense strand; blunt"}}}
{"binder": "TGGGTGTTGTTGGGGGAGGGAAATGGGT (structured_DNA)", "note": "[Cy5-BRCA1-G3]", "values": [{"measurement": "Kd", "setting": "[1]; parallel G4 in K+", "value": "37.8 ± 11.4", "unit": "nM"}]}
{"binder": "GGACCGGGGGCACACCGGGGTAGGGGGTCCGGAGGGTTAAC (structured_DNA)", "note": "[Cy5-ATG39pG4]", "values": [{"measurement": "Kd", "setting": "[1]; intramolecular parallel G4", "value": "30.2 ± 7.2", "unit": "nM"}]}
{"binder": "GAGCTGGGGTGAGCTGGGCTGAGCTGGGGTGAGCTGGGCTGAGCT (structured_DNA)", "note": "[Cy5-SµG]", "values": [{"measurement": "binding result", "setting": "[2]; G4", "value": "binds"}]}
{"binder": "GGGCGGGCGCGAGGGAGGGG (structured_DNA)", "note": "[Cy5-c-KIT2]", "values": [{"measurement": "binding result", "setting": "[2]; G4", "value": "no binding"}]}
{"binder": "CCCGGGCGGGCGCGAGGGAGGGGAGG (structured_DNA)", "note": "[c-KIT2Long]", "values": [{"measurement": "binding result", "setting": "[3]", "value": "no binding"}]}
{"binder": "B1", "values": [{"measurement": "binding result", "setting": "[4]", "value": "binds"}]}
{"binder": "B2", "values": [{"measurement": "binding result", "setting": "[5]", "value": "no binding"}]}
{"binder": "CCGCTGGGCAGGTCAGGGCAGGGGCTCTCAGGGGGGCGCCA (structured_DNA)", "note": "[Cy5-TPS1pG4]", "values": [{"measurement": "binding result", "setting": "[2]; G4", "value": "binds"}]}
{"binder": "GGACCGAGAGCACACCGAGATAGAGAGTCCGGAGAGTTAAC (ssDNA)", "note": "[Cy5-ATG39pG4Mut]", "values": [{"measurement": "binding result", "setting": "[2]", "value": "no binding"}]}
{"binder": "CCGCTGAGCAGGTCAGAGCAGAGACTCTCAGAGAGACGCCA (ssDNA)", "note": "[Cy5-TPS1pG4Mut]", "values": [{"measurement": "binding result", "setting": "[2]", "value": "no binding"}]}
{"binder": "ATTCTTGGGGCTGGGGTCCCTTGGGGAACTGTATTGGGTGAACC (structured_DNA)", "note": "[Cy5-ATG7 G4]", "values": [{"measurement": "binding result", "setting": "[2]; G4", "value": "binds"}]}
